Assay [1] addresses T1, human IL-36R overexpressed on 293T-hIL36R-NFκB cells (human, UniProt Q9HB29 20-575).
T1 sequence: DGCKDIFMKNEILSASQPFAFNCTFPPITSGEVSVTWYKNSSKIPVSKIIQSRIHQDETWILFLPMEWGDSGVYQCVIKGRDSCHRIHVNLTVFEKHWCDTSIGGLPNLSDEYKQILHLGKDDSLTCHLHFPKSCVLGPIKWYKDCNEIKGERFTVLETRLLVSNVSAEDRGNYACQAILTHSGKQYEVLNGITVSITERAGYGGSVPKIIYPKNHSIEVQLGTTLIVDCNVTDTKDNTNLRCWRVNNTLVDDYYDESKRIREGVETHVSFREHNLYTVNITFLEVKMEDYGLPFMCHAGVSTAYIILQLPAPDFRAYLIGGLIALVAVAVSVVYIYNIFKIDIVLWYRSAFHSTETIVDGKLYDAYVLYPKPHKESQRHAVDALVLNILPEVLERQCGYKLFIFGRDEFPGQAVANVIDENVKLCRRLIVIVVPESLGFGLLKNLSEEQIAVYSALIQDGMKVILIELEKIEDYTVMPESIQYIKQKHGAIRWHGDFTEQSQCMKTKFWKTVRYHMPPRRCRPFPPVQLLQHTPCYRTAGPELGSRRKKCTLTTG
The assay can be described thus: cell-based or functional assay.

In assay [2] the target is T2, IL-36R naturally expressed on OVCAR8 cells and on normal human epidermal keratinocytes (NHK cells) (human, UniProt Q9HB29 20-575).
T2 sequence (looked up): T1 sequence
The assay can be described thus: cell-based or functional assay.

The target of assay [3] is T2, IL-36R naturally expressed on OVCAR8 …. The assay can be described thus: cell-based or functional assay. This is another data set of the same source.
Assay [4] shares this target. Kind of assay: cell-based or functional assay. The source holds these as a separate data set.
In assay [5] the target is T1, human IL-36R overexpressed on …. The assay can be described thus: cell-based or functional assay. This is another data set of the same source.
Assay [6] has as its target T3, cynomolgus IL-36R overexpressed on 293T-CynoIL36R-NFκB cells (cynomolgus monkey).
T3 chain: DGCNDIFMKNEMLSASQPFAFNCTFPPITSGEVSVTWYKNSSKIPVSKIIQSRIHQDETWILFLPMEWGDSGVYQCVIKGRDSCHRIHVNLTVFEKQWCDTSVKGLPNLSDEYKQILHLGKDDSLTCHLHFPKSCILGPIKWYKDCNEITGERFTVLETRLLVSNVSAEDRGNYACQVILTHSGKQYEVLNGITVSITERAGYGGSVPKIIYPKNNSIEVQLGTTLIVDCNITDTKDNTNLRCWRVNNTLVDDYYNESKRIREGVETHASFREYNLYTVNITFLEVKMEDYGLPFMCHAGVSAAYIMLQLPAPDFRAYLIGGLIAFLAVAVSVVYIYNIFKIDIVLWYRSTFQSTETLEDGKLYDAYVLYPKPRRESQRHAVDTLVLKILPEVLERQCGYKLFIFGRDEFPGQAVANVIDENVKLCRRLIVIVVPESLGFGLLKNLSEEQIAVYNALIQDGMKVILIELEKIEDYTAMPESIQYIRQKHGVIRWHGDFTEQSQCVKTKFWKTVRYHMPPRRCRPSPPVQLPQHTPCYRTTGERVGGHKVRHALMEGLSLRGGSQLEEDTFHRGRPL
Kind of assay: cell-based or functional assay.

In assay [7] the target is T4, Human IL-1Rrp2/IL-1R6 protein, His Tag (ACROBiosystems, IL2-H52H6) (human, UniProt Q9HB29 20-335).
T4 construct: Bought protein; the soluble protein is likely only the extracellular part; also called hIL-36R; human IL36R antigen; not shown: His tag
T4 sequence: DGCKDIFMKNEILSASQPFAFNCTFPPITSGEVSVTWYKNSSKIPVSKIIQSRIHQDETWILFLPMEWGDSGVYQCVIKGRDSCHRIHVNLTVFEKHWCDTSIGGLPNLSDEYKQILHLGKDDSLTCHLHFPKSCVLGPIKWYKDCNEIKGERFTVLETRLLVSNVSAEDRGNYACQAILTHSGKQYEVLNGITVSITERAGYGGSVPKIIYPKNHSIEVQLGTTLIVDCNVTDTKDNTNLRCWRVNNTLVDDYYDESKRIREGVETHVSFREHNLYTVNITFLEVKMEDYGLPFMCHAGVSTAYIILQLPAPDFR
Kind of assay: BLI (ForteBio Octet), antibody on ProA sensor, 1:1 model. As for the experimental part: The affinity of anti-IL-36R antibodies to CynoIL36R-ECD mFc and human IL-1Rrp2/IL-IR6 protein, His Tag (ACROBiosystems, IL2-H52H6) was measured by a ForteBio molecular interaction instrument. […] And then the biosensor was used to bind CynoIL36R-ECD mFc or human IL-1Rrp2/IL-1R6 protein, His Tag which was diluted by a gradient (the initial concentration was 200 nM, 2-fold gradient dilution), the response signals were detected in real time using a Fortebio molecular interaction instrument (SARTORIUS, octet red 96e), and association and dissociation curves were obtained. After the completion of dissociation in each cycle, the biosensor was regenerated for the next capture; the procedure was repeated until the affinity of the different anti-IL-36R antibodies for IL-36R was determined. The resulting data were analyzed by Fortebio Data Analysis 11.0 software in a 1:1 (Langmuir) binding model to determine kₐ (kₒₙ) and kd (koff) values, and the dissociation constant KD was calculated by KD=kd/kₐ. The detection method essentially followed the manufacturer's recommendations, and more information could be found at www.fortebio.com.
A general note: BLI is a label-free optical method that tracks binding on a fibre tip over time.

Assay [8] addresses T1, human IL-36R overexpressed on …. The assay can be described thus: cell-based or functional assay. The source holds these as a separate data set.
For assay [9], the target named is T2, IL-36R naturally expressed on OVCAR8 …. Kind of assay: cell-based or functional assay. The source holds these as a separate data set.

Read-outs that look alike come from different tables or passages of the source.

B1: chimeric 84C4 antibody (antibody, human IgG4 S228P, kappa)
heavy: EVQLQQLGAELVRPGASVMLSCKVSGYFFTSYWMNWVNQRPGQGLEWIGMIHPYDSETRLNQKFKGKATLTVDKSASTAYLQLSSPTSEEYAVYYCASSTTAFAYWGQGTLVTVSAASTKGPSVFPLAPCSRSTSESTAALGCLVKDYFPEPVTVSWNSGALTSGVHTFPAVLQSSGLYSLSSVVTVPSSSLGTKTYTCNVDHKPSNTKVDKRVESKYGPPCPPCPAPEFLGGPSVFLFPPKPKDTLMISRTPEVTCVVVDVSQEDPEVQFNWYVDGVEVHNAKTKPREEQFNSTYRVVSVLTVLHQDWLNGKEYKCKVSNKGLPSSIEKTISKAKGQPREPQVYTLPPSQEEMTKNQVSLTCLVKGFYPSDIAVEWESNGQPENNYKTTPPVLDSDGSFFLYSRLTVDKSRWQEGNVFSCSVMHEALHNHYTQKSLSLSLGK
light: DILMTQSPSSLSASLGERVSLTCRASQDIGNALNWLQQAPDGTIKRLIYATSSLDPGVPKRFSGSRSGSDYSLTISSLASEDFVYYYCLQYASSPYTFGGGTKLEIKRTVAAPSVFIFPPSDEQLKSGTASVVCLLNNFYPREAKVQWKVDNALQSGNSQESVTEQDSKDSTYSLSSTLTLSKADYEKHKVYACEVTHQGLSSPVTKSFNRGEC
notes: Mouse variable regions on human IgG4 / kappa; also called xi84C4
In the case of B1, in [1], the “IC50; NFκB-luciferase reporter in 293T-hIL36R-NFκB cells stimulated with hIL36β, inhibition rate %” value was 2.79 nM. Also, in [2], the “IC50; IL-8 production of OVCAR8 cells stimulated with hIL36γ, inhibition rate %” value is 0.0181 nM. In addition, the “IC50; IL-8 production of OVCAR8 cells stimulated with hIL36β, inhibition rate %” value in [3] amounted to 0.113 nM.

B2: chimeric 72C1 antibody (antibody, human IgG4 S228P, kappa)
heavy: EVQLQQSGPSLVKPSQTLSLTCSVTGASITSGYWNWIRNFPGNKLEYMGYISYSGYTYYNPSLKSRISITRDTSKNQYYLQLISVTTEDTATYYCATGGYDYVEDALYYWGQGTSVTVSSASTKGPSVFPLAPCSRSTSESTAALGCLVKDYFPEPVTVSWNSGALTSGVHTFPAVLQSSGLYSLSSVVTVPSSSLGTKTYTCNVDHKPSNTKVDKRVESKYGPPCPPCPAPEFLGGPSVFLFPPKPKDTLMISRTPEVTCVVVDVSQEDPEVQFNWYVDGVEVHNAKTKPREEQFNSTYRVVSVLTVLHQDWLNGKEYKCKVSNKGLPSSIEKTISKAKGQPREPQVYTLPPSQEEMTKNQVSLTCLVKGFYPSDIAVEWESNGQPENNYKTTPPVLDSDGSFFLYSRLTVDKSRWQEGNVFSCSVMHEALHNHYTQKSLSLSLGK
light: EILLTQSPAIMSATLGEKVTMSCRASSNVRYMYWYQLKSGASPKLWIYLTSNLASGVPARFSGSGSGTSYSLTISSVEAEDAATYFCQQFTTSPYTFGGGTKLEIKRTVAAPSVFIFPPSDEQLKSGTASVVCLLNNFYPREAKVQWKVDNALQSGNSQESVTEQDSKDSTYSLSSTLTLSKADYEKHKVYACEVTHQGLSSPVTKSFNRGEC
notes: Mouse variable regions on human IgG4 / kappa; also called xi72C1
Consider B2, for which, in assay [4], the “IC50; IL-8 production of NHK cells stimulated with hIL36α, inhibition rate %” value turned out to be 0.159 nM. For the same molecule, the “IC50; NFκB-luciferase reporter in 293T-hIL36R-NFκB cells stimulated with hIL36α, inhibition rate %” value in assay [5] was 8 nM. For the same molecule, the “IC50; NFκB-luciferase reporter in 293T-CynoIL36R-NFκB cells stimulated with hIL36α, inhibition rate %” value in assay [6] was 3.32 nM. Moreover, in assay [7], binding was put at a Kd of 0.736 nM; the koff (in general, a measure of how fast the partners let go of each other) came out at 4.38e-05 s⁻¹; the kon (in general, a measure of how fast the partners come together) came to 59600 M⁻¹ s⁻¹. In addition, the “IC50; NFκB-luciferase reporter in 293T-hIL36R-NFκB cells stimulated with hIL36β, inhibition rate %” value in assay [8] came out at 7.51 nM. Also, in [9], the “IC50; IL-8 production of OVCAR8 cells stimulated with hIL36α, inhibition rate %” value is 0.113 nM.

B3: BI655130 (antibody, human IgG1, kappa, L234A L235A)
heavy: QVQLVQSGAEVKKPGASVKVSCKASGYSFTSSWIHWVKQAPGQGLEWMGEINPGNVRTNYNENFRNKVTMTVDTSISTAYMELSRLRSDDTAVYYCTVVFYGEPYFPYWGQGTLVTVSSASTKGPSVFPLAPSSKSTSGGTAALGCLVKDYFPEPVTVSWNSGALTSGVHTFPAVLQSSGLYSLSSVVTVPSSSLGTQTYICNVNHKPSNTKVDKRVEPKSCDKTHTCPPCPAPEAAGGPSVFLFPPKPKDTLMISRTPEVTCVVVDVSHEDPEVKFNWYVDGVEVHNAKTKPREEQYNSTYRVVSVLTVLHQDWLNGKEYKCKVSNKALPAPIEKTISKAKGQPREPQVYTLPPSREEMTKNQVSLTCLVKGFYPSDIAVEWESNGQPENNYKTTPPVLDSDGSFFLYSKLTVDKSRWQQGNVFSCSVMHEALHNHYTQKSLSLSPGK
light: QIVLTQSPGTLSLSPGERATMTCTASSSVSSSYFHWYQQKPGQAPRLWIYRTSRLASGVPDRFSGSGSGTDFTLTISRLEPEDAATYYCHQFHRSPLTFGAGTKLEIKRTVAAPSVFIFPPSDEQLKSGTASVVCLLNNFYPREAKVQWKVDNALQSGNSQESVTEQDSKDSTYSLSSTLTLSKADYEKHKVYACEVTHQGLSSPVTKSFNRGEC
notes: also called Spesolimab
For the molecule B3, the “IC50; IL-8 production of NHK cells stimulated with hIL36α, inhibition rate %” value in assay [4] amounted to 0.0741 nM. Moreover, the “IC50; NFκB-luciferase reporter in 293T-hIL36R-NFκB cells stimulated with hIL36α, inhibition rate %” value in assay [5] was found to be 3.62 nM. In addition, the “IC50; NFκB-luciferase reporter in 293T-CynoIL36R-NFκB cells stimulated with hIL36α, inhibition rate %” value in assay [6] turned out to be 27.7 nM. In addition, in [7], the Kd (in general, the equilibrium constant for the complex coming apart) was determined as 0.245 nM; the dissociation rate constant (koff) worked out at 1.57e-05 s⁻¹; the association rate constant (kon) came out at 64100 M⁻¹ s⁻¹. For the same molecule, the “IC50; NFκB-luciferase reporter in 293T-hIL36R-NFκB cells stimulated with hIL36β, inhibition rate %” value in assay [1] came to 2.45 nM. For the same molecule, the “IC50; NFκB-luciferase reporter in 293T-hIL36R-NFκB cells stimulated with hIL36β, inhibition rate %” value in [8] worked out at 5.02 nM. Further, the “IC50; IL-8 production of OVCAR8 cells stimulated with hIL36γ, inhibition rate %” value in [2] came to 0.0592 nM. Also, the “IC50; IL-8 production of OVCAR8 cells stimulated with hIL36α, inhibition rate %” value in assay [9] worked out at 0.0799 nM. In addition, the “IC50; IL-8 production of OVCAR8 cells stimulated with hIL36β, inhibition rate %” value in assay [3] was determined as 0.0861 nM.
